# Experimental data: article PMC6508501, “Conserved redox‐dependent DNA binding of ROXY glutaredoxins with TGA transcription factors”
# T1: PAN (…) (Arabidopsis thaliana, UniProt Q9SX27 1-452)
# T1 sequence: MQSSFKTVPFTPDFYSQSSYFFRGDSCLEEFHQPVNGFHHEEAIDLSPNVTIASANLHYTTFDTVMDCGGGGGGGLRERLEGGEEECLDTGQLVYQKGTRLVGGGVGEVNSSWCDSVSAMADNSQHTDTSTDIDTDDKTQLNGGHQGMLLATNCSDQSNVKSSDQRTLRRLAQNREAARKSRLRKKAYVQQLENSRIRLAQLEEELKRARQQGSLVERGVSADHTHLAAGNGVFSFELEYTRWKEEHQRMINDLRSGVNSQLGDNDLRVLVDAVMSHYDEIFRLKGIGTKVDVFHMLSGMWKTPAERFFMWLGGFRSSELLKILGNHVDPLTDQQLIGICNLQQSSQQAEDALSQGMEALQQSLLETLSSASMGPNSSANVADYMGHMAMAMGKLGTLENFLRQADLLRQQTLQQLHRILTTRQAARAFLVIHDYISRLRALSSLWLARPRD
# T2: PAN (…);ROXY1 (Arabidopsis thaliana;Arabidopsis …, UniProt Q9SX27;Q96305 1-452;1-136, |)
# T2 sequence 1: T1 sequence
# T2 sequence 2: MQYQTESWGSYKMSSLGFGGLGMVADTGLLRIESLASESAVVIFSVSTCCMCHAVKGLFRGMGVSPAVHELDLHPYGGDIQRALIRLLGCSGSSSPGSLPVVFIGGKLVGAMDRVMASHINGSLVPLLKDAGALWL
# T3: PAN (…);MpROXY2 (Arabidopsis thaliana;Marchantia …, UniProt Q9SX27;A0A2R6WT88 1-452;1-179, |)
# T3 sequence 1: T1 sequence
# T3 sequence 2: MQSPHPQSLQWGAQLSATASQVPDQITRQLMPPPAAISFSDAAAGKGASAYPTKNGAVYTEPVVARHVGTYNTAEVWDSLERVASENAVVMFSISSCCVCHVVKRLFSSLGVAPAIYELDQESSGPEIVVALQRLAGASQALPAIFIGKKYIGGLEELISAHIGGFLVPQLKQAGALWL
# T4: MpROXY2 (Marchantia polymorpha (ssp. ruderalis, …, UniProt A0A2R6WT88 1-179))
# T4 sequence: T3 sequence 2
# B1: as-1-like (dsDNA)
# DNA 1: CTACGTCACTATTTTACTTACGTCATAG
# DNA 2: CTATGACGTAAGTAAAATAGTGACGTAG
# Legend:
# [1] = molecular target: mTRQ2-MpTGA (Marchantia polymorpha); experiment: FRET or BRET; FRET-FLIM; 2in1 vector, donor mTRQ2 on MpTGA, acceptor mVENUS on MpROXY; 40 nuclei of N. benthamiana leaves; mono- or biexponential decay of the donor
# PAN (…) = molecular target: T1, PAN (…); experiment: EMSA; Redox EMSA per Gutsche & Zachgo 2016 (buffer, salt, pH, temperature not stated); 0.9 mM DTT (red) or 2 mM diamide (ox); 500 ng recombinant protein per reaction; native gel; details: tags: N-terminal MBP (per Methods), chain copies: 2, label: 5' 6-FAM, blunt
# PAN (…);ROXY1 = molecular target: T2, PAN (…);ROXY1; experiment: EMSA supershift; Redox EMSA per Gutsche & Zachgo 2016 (buffer, salt, pH, temperature not stated); 0.9 mM DTT (red) or 2 mM diamide (ox); 500 ng recombinant protein per reaction; native gel; details: tags: N-terminal MBP (per Methods);MBP, label: 5' 6-FAM, blunt
# PAN (…);MpROXY2 = molecular target: T3, PAN (…);MpROXY2; experiment: as above; details: tags: N-terminal MBP (per Methods);N-terminal MBP, label: 5' 6-FAM, blunt
# MpROXY2 = molecular target: T4, MpROXY2; experiment: EMSA; 0.9 mM DTT or 2 mM diamide; Redox EMSA per Gutsche & Zachgo 2016 (buffer, salt, pH, temperature not stated); 0.9 mM DTT (red) or 2 mM diamide (ox); 500 ng recombinant protein per reaction; native gel; details: tags: N-terminal MBP, label: 5' 6-FAM, blunt
Molecule,reduced donor fluorescence lifetime (τDA) [1],binding result (PAN (…)),binding result (PAN (…);ROXY1),binding result (PAN (…);MpROXY2),binding result (MpROXY2)
mVENUS-MpROXY2 (natural protein),< 2 ns,,,,
mVENUS-MpROXY1 (natural protein),< 2 ns,,,,
B1,,binds,binds,binds,no binding
